Measured values: publication PMC9615034
Where “and” joins values, the source holds several entries; their conditions need not be identical. Equal entries are not always repeated. Where two headings read alike, the source gives them in different places.

How the values were obtained:
[1] = molecular target: myeloperoxidase (Homo sapiens) (UniProt P05164); conditions: cited from earlier work
[2] = molecular target: myeloperoxidase (Homo sapiens) (UniProt P05164); assay: SPR; conditions: cited from earlier work
[3] = molecular target: Myeloperoxidase (native) (Homo sapiens) (UniProt P05164); assay: SPR; conditions: cited from earlier work
[4] = molecular target: myeloperoxidase (Homo sapiens) (UniProt P05164); conditions: cited from earlier work; remark: listed apart in the source
[5] = molecular target: biotinylated native human leukocyte myeloperoxidase (human) (UniProt P05164); assay: SPR; Biacore T200; biotinylated native MPO reversibly immobilised on a CAP chip (Biotin CAPture kit) to 500 RU; SPIN variants injected, 2-64 nM (legend: 32-2 nM), single cycle kinetics; RT; PBS, 0.05% Tween 20, 0.1% BSA; two-state model for SPIN-aureus, 1:1 model for SPIN-truncated
[6] = molecular target: mature dimeric human leukocyte myeloperoxidase (human) (UniProt P05164); assay: ITC; 10 μM MPO in the cell, 150 μM SPIN variant as titrant, 19 injections of 3 μl; 50 mM phosphate buffer pH 7.4 or pH 5; one-site binding model
[7] = molecular target: mature dimeric human leukocyte myeloperoxidase (human) (UniProt P05164)
[8] = molecular target: mature dimeric human leukocyte myeloperoxidase (human) (UniProt P05164); remark: listed apart in the source

## SPIN-truncated C-terminal domain (from UniProt A0A0H3K703)
[1]
  Kd: 10 nM

## SPIN-truncated CTD (from UniProt A0A0H3K703)
[2]
  Kd: 35.1 nM
[3]
  Kd: 29.8 nM

## SPIN-aureus (from UniProt A0A0H3K703)
[4]
  Kd: 10 nM
[2]
  Kd: 11.8 nM
[3]
  Kd: 15.9 nM and 9.3 nM

B1: SPIN-truncated (domain or fragment)
chain: LEHELSYIDVLLDKNADQATKDNLRSYFADKGLHSIKDIINKAKQDGFDVSKYEHVK
[5]
  Kd: 21 nM
  koff: 0.016 s⁻¹
  kon: 110000 M⁻¹ s⁻¹
[6]
  Kd: 5.9 nM
  dH: -72.8 kJ/mol

B2: SPIN-aureus (Staphylococcal Peroxidase Inhibitor from Staphylococcus aureus) (natural protein)
chain: SQNGLVLHDDANFLEHELSYIDVLLDKNADQATKDNLRSYFADKGLHSIKDIINKAKQDGFDVSKYEHVK
[7]
  shift of the Tm of MPO by DSC, MPO with SPIN-aureus against MPO alone, pH 5: 5 °C
  shift of the Tm of MPO by DSC, MPO with SPIN-aureus against MPO alone, pH 7.4: 1.5 °C
[5]
  Kd: 0.005 nM
  koff1 (two-state model, first step): 0.005 s⁻¹
  koff2 (two-state model, second step): 3.5e-06 s⁻¹
  kon1 (two-state model, first step): 590000 M⁻¹ s⁻¹
[8]
  half maximal inhibition time IT50 of the bromination activity of MPO, first phase (incubation 0-5 min, ∼80% total inhibition): 2.4 s
  half maximal inhibition time IT50 of the bromination activity of MPO, second phase (incubation 5-120 min): 24 min
  inhibition of the bromination activity of MPO (MCD assay, pH 5) after preincubation with SPIN-aureus for 0 to 120 min: 99.5%
